This test has as its target T1, Purified NBP35 (His‐tagged, from E. coli) (Arabidopsis thaliana, UniProt Q8H1Q2 1-350).
T1 construct: The SPR methods say only 'purified NBP35'; also called wild‐type NBP35; source: E. coli, purified (His-Trap HP column, desalted on PD10)
T1 sequence (looked up): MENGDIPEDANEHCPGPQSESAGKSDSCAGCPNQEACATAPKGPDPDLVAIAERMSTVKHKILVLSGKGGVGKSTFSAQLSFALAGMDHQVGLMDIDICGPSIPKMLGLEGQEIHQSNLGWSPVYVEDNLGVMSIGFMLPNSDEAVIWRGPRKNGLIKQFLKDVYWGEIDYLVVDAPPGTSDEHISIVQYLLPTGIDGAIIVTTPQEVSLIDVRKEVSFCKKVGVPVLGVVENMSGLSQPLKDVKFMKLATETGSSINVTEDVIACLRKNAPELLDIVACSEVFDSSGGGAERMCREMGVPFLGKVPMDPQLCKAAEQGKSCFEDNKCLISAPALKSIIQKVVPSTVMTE
Briefly: SPR; Biacore T200, Streptavidin chip; Strep-tagged DRE2 captured from E. coli cell extract (about 1700 RU); purified NBP35 0-45 uM injected, multi-cycle; 25°C; 20 mM Tris-HCl pH 8, 0.15 M NaCl, 5% glycerol; equilibrium response, Affinity Fit, 1:1 model. The following applies: one partner purified.

B1: Strep‐tagged DRE2 (natural protein)
chain: not shown
notes: DRE2/CIAPIN1, Arabidopsis thaliana, AT5G18400; printed also as 'DRE2-Strep'; also called DRE2‐Strep; source: E. coli cell extract, captured on a Streptavidin sensor chip
Turning to B1, the Kd – broadly, a measure of binding affinity in units of concentration – was 3.3 ± 0.9 µM.

The values above are taken from paper PMC5324674, “NBP35 interacts with DRE2 in the maturation of cytosolic iron‐sulphur proteins in Arabidopsis thaliana” (The Plant Journal, 2017).
